The target of this assay is human GLP-2 Receptor (human) (UniProt O95838).
Chain of UniProt O95838 (O95838 whole entry): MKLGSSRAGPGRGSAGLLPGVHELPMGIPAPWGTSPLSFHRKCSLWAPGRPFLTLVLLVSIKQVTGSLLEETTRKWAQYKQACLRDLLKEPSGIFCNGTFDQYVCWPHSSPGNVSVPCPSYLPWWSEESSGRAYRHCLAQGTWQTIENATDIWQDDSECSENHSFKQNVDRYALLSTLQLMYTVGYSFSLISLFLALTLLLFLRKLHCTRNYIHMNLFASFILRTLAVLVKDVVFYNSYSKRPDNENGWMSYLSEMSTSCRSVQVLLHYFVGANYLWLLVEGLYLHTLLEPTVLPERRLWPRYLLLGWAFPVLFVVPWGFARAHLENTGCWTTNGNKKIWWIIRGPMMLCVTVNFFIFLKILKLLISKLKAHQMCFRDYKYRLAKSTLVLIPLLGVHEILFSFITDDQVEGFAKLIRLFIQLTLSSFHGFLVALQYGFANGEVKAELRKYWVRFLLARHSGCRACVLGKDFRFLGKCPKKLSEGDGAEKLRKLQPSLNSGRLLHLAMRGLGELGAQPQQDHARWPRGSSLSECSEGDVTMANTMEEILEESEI

B1: GLP2-2G-XTEN fusion protein (protein)
chain: HGDGSFSDEMNTILDNLAARDFINWLIQTKITDGGSPAGSPTSTEEGTSESATPESGPGTSTEPSEGSAPGSPAGSPTSTEEGTSTEPSEGSAPGTSTEPSEGSAPGTSESATPESGPGSEPATSGSETPGSEPATSGSETPGSPAGSPTSTEEGTSESATPESGPGTSTEPSEGSAPGTSTEPSEGSAPGSPAGSPTSTEEGTSTEPSEGSAPGTSTEPSEGSAPGTSESATPESGPGTSTEPSEGSAPGTSESATPESGPGSEPATSGSETPGTSTEPSEGSAPGTSTEPSEGSAPGTSESATPESGPGTSESATPESGPGSPAGSPTSTEEGTSESATPESGPGSEPATSGSETPGTSESATPESGPGTSTEPSEGSAPGTSTEPSEGSAPGTSTEPSEGSAPGTSTEPSEGSAPGTSTEPSEGSAPGTSTEPSEGSAPGSPAGSPTSTEEGTSTEPSEGSAPGTSESATPESGPGSEPATSGSETPGTSESATPESGPGSEPATSGSETPGTSESATPESGPGTSTEPSEGSAPGTSESATPESGPGSPAGSPTSTEEGSPAGSPTSTEEGSPAGSPTSTEEGTSESATPESGPGTSTEPSEGSAPGTSESATPESGPGSEPATSGSETPGTSESATPESGPGSEPATSGSETPGTSESATPESGPGTSTEPSEGSAPGSPAGSPTSTEEGTSESATPESGPGSEPATSGSETPGTSESATPESGPGSPAGSPTSTEEGSPAGSPTSTEEGTSTEPSEGSAPGTSESATPESGPGTSESATPESGPGTSESATPESGPGSEPATSGSETPGSEPATSGSETPGSPAGSPTSTEEGTSTEPSEGSAPGTSTEPSEGSAPGSEPATSGSETPGTSESATPESGPGTSTEPSEGSAPG
With B1, the calcium flux (FLIPR) in a human GLP-2 receptor-expressing Chem-11 cell line, serial dilutions, EC50 of activation was 380 nM.

These data come from PMC3506575.
